This experiment has as its target T1, SARS-CoV-2 WT spike (S) protein (SARS-CoV-2 prototype Wuhan-Hu-1 …, UniProt P0DTC2).
T1 construct: source: bought: Sino Biological Inc., purified
Put plainly: cryo-EM structure. To be noted: both partners purified.

Consider two molecules from article PMC9407403 (Proceedings of the National Academy of Sciences of the …, 2022).

B1: Fab fragment of nAb X01 (Fab, V domains shown)
VH: EIQLQQSGPELVAPGASVKVSCKASGYAFTSYNMYWVRQSHGKSLEWIGYIVPYNGGTTYNQEFKGKATLTVDKSSNTAYIHLNSLTSEDSAVYYCAKEGTYYGYDGVLADWGQGTLVT
VL: DIQMTQSSSYLSVSLGGRVTITCKASDHINNWLAWYQQKPGNAPRLLISGVTNLETGVPSRFSGSGSGKNFTLSIASLQTEDVATYYCQQYWSFPWTFGGGTKLEIR
Turning to B1, the binding result was “binds”.

B2: Fab fragment of nAb X10 (Fab, V domains shown)
VH: EVQLQQSGPELVKPGASVKISCKTSGYTFTEYTLHWVKQSHGKSLEWIGGFDPNFGGATYNLKFEDKATLTVDKSSNTAYMELRSLTSEDSAVFYCARGDYGTSYAYFDFWGQGTTLTVSS
VL: DIVLTQSPASLAVSLGQRAAISCRASQSVSTSSHNYVHWYQQRPGQPPKLLIKYASNLECGVPARFSGSGSGTDFTLNIHPVEEEDSAAYYCQHSWEIPYTFGGGTKLEIK
For B2, the binding result is “binds”.
